{"source": "patent US20060159695A1", "about": "(published 2006)", "binders": {"B1": {"name": "Fab 007 (Fab, V domains shown)", "VH": "not shown", "VL": "DIVMTQSPDSLAVSLGERATINCRASQSVDLFGKSYMHWYQQKPGQPPKLLIYAASNPESGVPDRFSGSGSGTDFTLTISSLQAEDVAVYYCQQIIDDPWTFGQGTKVEIK"}, "B2": {"name": "Fab 008 (Fab, V domains shown)", "VH": "not shown", "VL": "B1 VL with Q27D"}, "B3": {"name": "Fab 009 (Fab, V domains shown)", "VH": "not shown", "VL": "B1 VL with Q27D, K34R"}, "B4": {"name": "Fab 010 (Fab, V domains shown)", "VH": "not shown", "VL": "B1 VL with Q27D, K34R"}, "B5": {"name": "Fab 011 (Fab, V domains shown)", "VH": "not shown", "VL": "B1 VL with Q27D, K34Q"}, "B6": {"name": "Fab 012 (Fab, V domains shown)", "VH": "not shown", "VL": "B1 VL"}, "B7": {"name": "Fab 013 (Fab, V domains shown)", "VH": "not shown", "VL": "B1 VL with Q27D, K34Q"}, "B8": {"name": "Fab 014 (Fab, V domains shown)", "VH": "not shown", "VL": "B1 VL with Q27D, K34V"}, "B9": {"name": "Fab 015 (Fab, V domains shown)", "VH": "not shown", "VL": "B1 VL with L31F, K34T"}, "B10": {"name": "Fab 016 (Fab, V domains shown)", "VH": "not shown", "VL": "B1 VL with L31Y, K34V"}, "B11": {"name": "Fab 017 (Fab, V domains shown)", "VH": "not shown", "VL": "B1 VL with Q27D, L31Y, K34Q"}, "B12": {"name": "Fab 019 (Fab, V domains shown)", "VH": "not shown", "VL": "B1 VL with Q27D, K34Q"}, "B13": {"name": "Fab 022 (Fab, V domains shown)", "VH": "not shown", "VL": "B1 VL with K34T"}, "B14": {"name": "Fab 024 (Fab, V domains shown)", "VH": "not shown", "VL": "B1 VL with Q27D, K34T"}, "B15": {"name": "Fab 025 (Fab, V domains shown)", "VH": "not shown", "VL": "B1 VL"}, "B16": {"name": "Fab 026 (Fab, V domains shown)", "VH": "not shown", "VL": "B1 VL with Q27D, L31F"}, "B17": {"name": "Fab 028 (Fab, V domains shown)", "VH": "not shown", "VL": "B1 VL with Q27D, K34V, D97E"}, "B18": {"name": "Fab 029 (Fab, V domains shown)", "VH": "not shown", "VL": "B1 VL with Q27D, L31Y, K34V"}, "B19": {"name": "Fab 030 (Fab, V domains shown)", "VH": "not shown", "VL": "B1 VL with L31Y, F32L"}, "B20": {"name": "Fab 032 (Fab, V domains shown)", "VH": "not shown", "VL": "B1 VL with Q27D, L31Y, K34R"}, "B21": {"name": "Fab A10 (Fab, V domains shown)", "VH": "not shown", "VL": "B1 VL with F32L, K34G, D97E"}, "B22": {"name": "Fab 018 (Fab, V domains shown)", "VH": "not shown", "VL": "B1 VL with Q27D, K34Q, D97E"}}, "note": "Substitutions are numbered along the chain they refer to."}
{"biological_target": "T1, soluble, extracellular domain of recombinantly expressed RSV F protein (human RSV)", "T1 construct": "extracellular domain; also called recombinant RSV F protein; recombinant RSV-F", "T1 sequence (P12568 26-109, chain 1 of 2)": "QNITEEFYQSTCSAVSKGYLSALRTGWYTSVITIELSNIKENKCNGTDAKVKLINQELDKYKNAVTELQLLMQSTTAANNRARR", "T1 sequence (P12568 137-524, chain 2 of 2)": "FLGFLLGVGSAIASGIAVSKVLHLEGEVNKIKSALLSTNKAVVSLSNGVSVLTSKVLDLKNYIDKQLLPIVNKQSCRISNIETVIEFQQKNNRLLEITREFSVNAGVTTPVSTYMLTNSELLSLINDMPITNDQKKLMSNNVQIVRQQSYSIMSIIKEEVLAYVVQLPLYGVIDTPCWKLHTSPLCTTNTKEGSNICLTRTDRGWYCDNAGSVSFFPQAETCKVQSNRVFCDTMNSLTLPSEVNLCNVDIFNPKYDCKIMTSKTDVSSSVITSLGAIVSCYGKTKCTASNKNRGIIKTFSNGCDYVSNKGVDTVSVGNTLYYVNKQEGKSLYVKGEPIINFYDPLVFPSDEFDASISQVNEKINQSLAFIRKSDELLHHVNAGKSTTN", "test": "SPR (Biacore), Fab over captured biotinylated RSV-F;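 for Kd: purified Fabs injected at a single concentration, reference surface subtracted, rate constants from a one-to-one binding model fit, Kd computed as koff divided by kon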;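 for koff: purified Fabs injected at a single concentration, reference surface subtracted, rate constants from a one-to-one binding model fit, Kd computed as koff divided by kon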;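 for kon: purified Fabs injected at a single concentration, reference surface subtracted, rate constants from a one-to-one binding model fit, Kd computed as koff divided by kon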", "units": {"Kd": "nM", "koff": "s⁻¹", "kon": "M⁻¹ s⁻¹"}, "description": "(§1) The Fab/RSV-F binding assays were performed at 25° C. using either Biacore 2000 or 3000 biosensors equipped with a CM5 (carboxymethyl dextran) chip. All surfaces (flow cells) were modified by immobilizing 500-1000 RU SA (streptavidin) at 10 μg/mL in 10 mM sodium acetate, pH 5.0 using a standard amine coupling method. The sample and running buffer were PBS with 0.1% P-20 added to minimize non-specific binding of sample contaminants to the dextran surface. A recombinant RSV-F was biotinylated and captured on three SA surfaces on the sensor chip. About 40 RU biotinylated RSV-F were captured on flow cells 1, 25 RU on flow cell 3. Flow cell 2 was used as a reference surface where no F protein was used. Fab samples were injected at one concentration (30 nM) over the four surfaces. The association phases were monitored for 2 minutes and dissociation phases for 6 to 60 minutes. […] The RSV-F surfaces were regenerated with a 3-second pulse 10 mM phosphoric acid at the end of each binding cycle. Each sample analysis was repeated three times. Fab B23 was used as an activity reference.\nThe Fab/RSV-F binding data from flow cells 1 and 3 were corrected using the reference data obtained from the flow cell 2. The resulting corrected binding response data was fit to a 1:1 interaction model using the CLAMP™ software. The binding rate constants were directly obtained from the fit to the 1:1 model to the replicate data set. The equilibrium binding constant was calculated from their ratio (KD=kd/kₐ)."}
{"binder": "B1", "Kd": 0.058, "koff": 0.00019, "kon": "3.3e+06"}
{"binder": "B2", "Kd": 0.133, "koff": 0.00028, "kon": "2.1e+06"}
{"binder": "B3", "Kd": 0.028, "koff": "7.9e-05", "kon": "2.8e+06"}
{"binder": "B4", "Kd": 0.047, "koff": 0.00018, "kon": "3.8e+06"}
{"binder": "B5", "Kd": 0.007, "koff": "2.7e-05", "kon": "4e+06"}
{"binder": "B6", "Kd": 0.005, "koff": "1.5e-05", "kon": "3e+06"}
{"binder": "B7", "Kd": 0.058, "koff": 0.00021, "kon": "3.6e+06"}
{"binder": "B8", "Kd": 0.184, "koff": "7e-05", "kon": 380000}
{"binder": "B9", "Kd": 0.016, "koff": "7.8e-05", "kon": "5e+06"}
{"binder": "B10", "Kd": 0.09, "koff": "9e-05", "kon": "1e+06"}
{"binder": "B11", "Kd": 0.054, "koff": "8.1e-05", "kon": "1.5e+06"}
{"binder": "B12", "Kd": 0.0135, "koff": "4.5e-05", "kon": "3.34e+06"}
{"binder": "B13", "Kd": 0.025, "koff": "5.4e-05", "kon": "2.16e+06"}
{"binder": "B14", "Kd": 0.002, "koff": "7e-06", "kon": "3.14e+06"}
{"binder": "B15", "Kd": 0.018, "koff": "4.6e-05", "kon": "2.52e+06"}
{"binder": "B16", "Kd": 0.028, "koff": "6.6e-05", "kon": "2.39e+06"}
{"binder": "B17", "Kd": 0.02, "koff": "8.6e-05", "kon": "4.2e+06"}
{"binder": "B18", "Kd": 0.009, "koff": "4e-05", "kon": "4.58e+06"}
{"binder": "B19", "Kd": 0.073, "koff": "7.5e-05", "kon": "1.03e+06"}
{"binder": "B20", "Kd": 0.039, "koff": "3.6e-05", "kon": 930000}
{"binder": "B21", "Kd": 0.175, "koff": 0.000147, "kon": 850000}
{"binder": "B22", "Kd": 0.055, "koff": "8.8e-05", "kon": "1.6e+06"}
{"biological_target": "RSV F protein on human RSV virus (Long strain) (human RSV, Long strain, UniProt P12568 26-574)", "test": "cell-based or functional assay", "units": {"Viral Neut (fold increase over wild-type B23 Fab)": "fold"}}
{"binder": "B1", "Viral Neut (fold increase over wild-type B23 Fab)": 5}
{"binder": "B2", "Viral Neut (fold increase over wild-type B23 Fab)": 15}
{"binder": "B3", "Viral Neut (fold increase over wild-type B23 Fab)": 19}
{"binder": "B4", "Viral Neut (fold increase over wild-type B23 Fab)": 18}
{"binder": "B5", "Viral Neut (fold increase over wild-type B23 Fab)": "> 23"}
{"binder": "B6", "Viral Neut (fold increase over wild-type B23 Fab)": 11}
{"binder": "B7", "Viral Neut (fold increase over wild-type B23 Fab)": 13}
{"binder": "B8", "Viral Neut (fold increase over wild-type B23 Fab)": "< 1"}
{"binder": "B9", "Viral Neut (fold increase over wild-type B23 Fab)": 8}
{"binder": "B10", "Viral Neut (fold increase over wild-type B23 Fab)": 10}
{"binder": "B11", "Viral Neut (fold increase over wild-type B23 Fab)": "> 23"}
{"binder": "B12", "Viral Neut (fold increase over wild-type B23 Fab)": "> 23"}
{"binder": "B13", "Viral Neut (fold increase over wild-type B23 Fab)": 22}
{"binder": "B14", "Viral Neut (fold increase over wild-type B23 Fab)": "> 23"}
{"binder": "B15", "Viral Neut (fold increase over wild-type B23 Fab)": 20}
{"binder": "B16", "Viral Neut (fold increase over wild-type B23 Fab)": 20}
{"binder": "B17", "Viral Neut (fold increase over wild-type B23 Fab)": 18}
{"binder": "B18", "Viral Neut (fold increase over wild-type B23 Fab)": "> 23"}
{"binder": "B19", "Viral Neut (fold increase over wild-type B23 Fab)": 18}
{"binder": "B20", "Viral Neut (fold increase over wild-type B23 Fab)": "> 23"}
{"biological_target": "T1, soluble, extracellular domain of …", "test": "SPR (Biacore), Fab over captured biotinylated RSV-F", "remark": "another data set of the same source", "units": {"fold decrease in binding dissociation constant (Kd) relative to A7": "fold"}, "description": "as §1\nThe Fab/RSV-F binding data from flow cells 1 and 3 were corrected using the reference data obtained from the flow cell 2. The resulting corrected binding response data was fit to a 1:1 interaction model using the CLAMP™ software. […] The equilibrium binding constant was calculated from their ratio (KD=kd/kₐ)."}
{"binder": "B3", "fold decrease in binding dissociation constant (Kd) relative to A7": "~4"}
